This note sets out measurements from patent publication US20180250396A1 (FONDAZIONE IRCCS ISTITUTO NAZIONALE DEI TUMORI, published 2018).

Assay [1] deals with T1, Recombinant human TRAIL-R2 (R&D Systems) (human, UniProt O14763 54-182, limits assumed).
T1 construct: Bought recombinant protein, amine-coupled to a CM5 chip; also called TRAIL-R2 recombinant protein; recombinant receptor
The assay is described as follows: SPR (BIAcore), recombinant TRAIL-R2 immobilised on a CM5 chip, 5 scDb concentrations from 400 to 25 nM. On the technique in general: Surface plasmon resonance follows binding to a sensor surface in real time, without labels.

Assay [2] deals with T2, TRAIL-R2 on cells (TRAIL-R2+ human melanoma and other tumor cell lines) (human, UniProt O14763 56-440).
T2 construct: whole, on cells; Endogenous receptor on cell lines; also called TRAIL-R2+ cells
The assay is described as follows: soluble scFv on TRAIL-R2+ cells.

The target in assay [3] is T3, naive TRAIL-R2 captured from SU-DHL-4 cell lysate (human, UniProt O14763 56-440, limits assumed).
T3 construct: also called naïve TRAIL-R2; natural TRAIL-R2
In words: single clone phage ELISA (scFv on phage), TRAIL-R2 captured from SU-DHL-4 lysate. On the technique in general: ELISA stands for enzyme-linked immunosorbent assay.

B1: scDb 16e2/hUCTH1 (bispecific antibody)
chain: EVQLVQSGGGVERPGGSLRLSCAASGFTFDDYGMSWVRQAPGKGLEWVSGINWNGGSTGYADSVKGRVTISRDNAKNSLYLQMNSLRAEDTAVYYCAKILGAGRGWYFDLWGKGTTVTVSSTGGGGSDIQMTQSPSSLSASVGDRVTITCRASQDIRNYLNWYQQKPGKAPKLLIYYTSRLESGVPSRFSGSGSGTDYTLTISSLQPEDFATYYCQQGNTLPWTFGQGTKVEIKRGGGGSGGGGSGGGGSEVQLVESGGGLVQPGGSLRLSCAASGYSFTGYTMNWVRQAPGKGLEWVALINPYKGVSTYNQKFKDRFTISVDKSKNTAYLQMNSLRAEDTAVYYCARSGYYGDSDWYFDVWGQGTLVTVSSGGGGSRSELTQDPAVSVALGQTVRITCQGDSLRSYYASWYQQKPGQAPVLVIYGKNNRPSGIPDRFSGSSSGNTASLTITGAQAEDEADYYCNSRDSSGNHVVFGGGTKLTVLAAAHHHHHHGAAEQKLISEEDLNGAA
notes: Made in E. coli HB2151 periplasm; also called 16e2×hUCTH1 scDb; 16E2×hUCTH1 scDb
A word on the Kd: it is the concentration at which binding is half-saturated. With B1, the Kd in assay [1] stood at 148 nM.

B2: Clone 44 anti-TRAIL-R2 ScFv isolated with Phage Display (scFv)
scFv: QVHLRESGGGLVQPGRSLRLSCAASGFTFDDYAMHWVRQAPGKGLEWVSGISWNSGSISYADSVKGRFTISRDNAKNSLYLQMSSLRSEDTAVYYCARDPNHGGDRRDDALDMWGQGTMVTVSSGGGGSGGGGSGGGGSSELTQDPAVSVALGQTVRITCQGHSLRSYFASWYQQRPRQAPTLVIYGKNNRPSGIPDRFSGSSSGNTASLTITGAQAEDEADYYCGSRDSSSTHRGVFGGGTKLTVLGAA
notes: Tested on phage and as soluble scFv
In the case of B2, the binding result in assay [2] and in assay [3] was “binds” throughout.

B3: Clone 8 anti-TRAIL-R2 ScFv isolated with Phage Display (scFv)
scFv: EVQLLESGGGLVQPGGSLRLSCAASGFTFSSYAMSWVRQAPGKGLEWVSAISQQGQVTDYADSVKGRFTISRDNSKNTLYLQMNSLRAEDTAVYYCAKRWNRFDYWGQGTLVIVSSGGGGSGGGGSGGGGSTDIQMTQSPSSLSASVGDRVTITCRASQSISSYLNWYQQKPGKAPKLLIYAASGLQSGVPSRFSGSGSGTDFTLTISSLQPEDFATYYCQQHSMSPNTFGQGTKVEIKRAA
notes: as for B2
Take B3: the binding result in assay [2] and in assay [3] was “binds” each time.
